# Measurements taken from paper PMC9242591 (Science Advances, 2022).
# T1: His-tagged NIN-LIKE PROTEIN 7 (His-NLP7) (Arabidopsis thaliana, UniProt Q84TH9 1-959)
# T1 sequence (looked up): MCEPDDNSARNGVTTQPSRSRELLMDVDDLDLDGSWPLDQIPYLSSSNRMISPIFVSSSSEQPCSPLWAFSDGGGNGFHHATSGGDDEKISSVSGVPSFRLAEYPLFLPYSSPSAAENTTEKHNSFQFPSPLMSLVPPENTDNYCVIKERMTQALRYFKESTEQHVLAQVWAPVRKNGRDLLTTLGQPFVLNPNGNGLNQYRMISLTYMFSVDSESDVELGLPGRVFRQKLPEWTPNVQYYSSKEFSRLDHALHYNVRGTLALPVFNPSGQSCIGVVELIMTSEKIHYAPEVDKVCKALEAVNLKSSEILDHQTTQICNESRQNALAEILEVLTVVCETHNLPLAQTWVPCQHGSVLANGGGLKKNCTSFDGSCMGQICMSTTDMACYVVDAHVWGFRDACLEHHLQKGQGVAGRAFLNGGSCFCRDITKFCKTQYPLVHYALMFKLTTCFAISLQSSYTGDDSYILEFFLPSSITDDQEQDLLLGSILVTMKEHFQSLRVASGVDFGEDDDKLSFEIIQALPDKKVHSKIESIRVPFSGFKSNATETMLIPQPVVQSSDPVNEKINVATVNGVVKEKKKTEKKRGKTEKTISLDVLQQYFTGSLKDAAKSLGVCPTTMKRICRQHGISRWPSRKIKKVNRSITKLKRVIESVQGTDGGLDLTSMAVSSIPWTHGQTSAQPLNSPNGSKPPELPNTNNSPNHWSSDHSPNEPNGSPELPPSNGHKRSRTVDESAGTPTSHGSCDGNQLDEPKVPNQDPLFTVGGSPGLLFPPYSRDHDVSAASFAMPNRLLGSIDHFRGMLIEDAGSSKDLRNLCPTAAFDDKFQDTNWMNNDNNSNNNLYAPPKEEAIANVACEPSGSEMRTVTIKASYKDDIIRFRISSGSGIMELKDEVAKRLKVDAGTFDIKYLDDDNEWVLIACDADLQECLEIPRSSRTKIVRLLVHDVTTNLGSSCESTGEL
# B1: CBF1-NREL probe (dsDNA)
# DNA 1: AAAAGTCTCTTTACAAGGGTCAAA
# DNA 2: TTTGACCCTTGTAAAGAGACTTTT
# B2: GST-tagged CALCIUM-DEPENDENT PROTEIN KINASE 28 (GST-CPK28) (enzyme, Arabidopsis thaliana, UniProt Q9FKW4 1-523, looked up)
# chain: MGVCFSAIRVTGASSSRRSSQTKSKAAPTPIDTKASTKRRTGSIPCGKRTDFGYSKDFHDHYTIGKLLGHGQFGYTYVAIHRPNGDRVAVKRLDKSKMVLPIAVEDVKREVQILIALSGHENVVQFHNAFEDDDYVYIVMELCEGGELLDRILSKKGNRYSEKDAAVVVRQMLKVAGECHLHGLVHRDMKPENFLFKSAQLDSPLKATDFGLSDFIKPGKRFHDIVGSAYYVAPEVLKRRSGPESDVWSIGVITYILLCGRRPFWDRTEDGIFKEVLRNKPDFSRKPWATISDSAKDFVKKLLVKDPRARLTAAQALSHAWVREGGNATDIPVDISVLNNLRQFVRYSRLKQFALRALASTLDEAEISDLRDQFDAIDVDKNGVISLEEMRQALAKDLPWKLKDSRVAEILEAIDSNTDGLVDFTEFVAAALHVHQLEEHDSEKWQLRSRAAFEKFDLDKDGYITPEELRMHTGLRGSIDPLLDEADIDRDGKISLHEFRRLLRTASISSQRAPSPAGHRNLR
# How the values were obtained:
# [1] = target: His-NLP7 (RWP-RK) (Arabidopsis thaliana, UniProt Q84TH9 535-733); assay: EMSA
# [2] = target: T1, His-tagged NIN-LIKE PROTEIN 7 (His-NLP7); assay: pull-down
Binder,binding result [1],binding result [2]
B1,binds,
B2,,binds
